This note sets out measurements from article PMC12117036.

The target of this assay is rhodamine-labeled rabbit skeletal muscle actin (rabbit) (UniProt P68135).

espin (ectoplasmic specialization protein), recombinant protein, sequence (B1AK53 whole entry): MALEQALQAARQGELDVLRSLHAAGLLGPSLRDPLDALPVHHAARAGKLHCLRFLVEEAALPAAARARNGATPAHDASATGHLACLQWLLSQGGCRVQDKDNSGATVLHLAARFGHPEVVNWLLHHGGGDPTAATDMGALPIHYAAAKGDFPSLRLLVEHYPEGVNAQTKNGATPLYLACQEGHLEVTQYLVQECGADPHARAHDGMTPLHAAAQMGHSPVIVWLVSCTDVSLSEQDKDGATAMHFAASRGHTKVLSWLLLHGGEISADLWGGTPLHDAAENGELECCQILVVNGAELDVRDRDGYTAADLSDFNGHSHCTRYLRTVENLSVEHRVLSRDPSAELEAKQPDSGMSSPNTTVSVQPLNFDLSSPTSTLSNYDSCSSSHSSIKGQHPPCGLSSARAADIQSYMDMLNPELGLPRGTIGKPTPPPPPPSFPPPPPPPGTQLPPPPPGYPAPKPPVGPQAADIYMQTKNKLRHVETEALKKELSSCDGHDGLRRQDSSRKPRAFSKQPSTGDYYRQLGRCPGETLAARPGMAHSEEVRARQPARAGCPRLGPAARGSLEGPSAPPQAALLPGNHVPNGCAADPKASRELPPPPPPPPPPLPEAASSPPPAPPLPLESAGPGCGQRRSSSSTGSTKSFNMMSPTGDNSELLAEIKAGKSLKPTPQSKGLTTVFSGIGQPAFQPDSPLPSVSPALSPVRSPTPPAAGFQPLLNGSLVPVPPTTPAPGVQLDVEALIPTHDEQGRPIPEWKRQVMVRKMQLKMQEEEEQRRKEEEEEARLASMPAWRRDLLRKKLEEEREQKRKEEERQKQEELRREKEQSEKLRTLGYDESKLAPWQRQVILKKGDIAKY

The substance “espin (ectoplasmic specialization protein), recombinant protein (from UniProt B1AK53 1-854) (natural protein)” registered a minimum concentration of purified espin at which bundling of pre-polymerized rhodamine-actin filaments (3 uM) was seen by confocal imaging (Fig. 4L) of 100 nM.
